Laboratory results as given in patent US11834472B2, “Anti-IL-22 antibodies, antibody fragments, their immunoconjugates and uses thereof” (BioAtla, Inc., priority 2018, dated 2023).
Positions count from the first letter of the chain named. Names may count otherwise. Read-outs that look alike come from different tables or passages of the source.

T1: mouse IL-22 (Mus musculus, UniProt Q9JJY9)
T1 sequence (Q9JJY9 34-179): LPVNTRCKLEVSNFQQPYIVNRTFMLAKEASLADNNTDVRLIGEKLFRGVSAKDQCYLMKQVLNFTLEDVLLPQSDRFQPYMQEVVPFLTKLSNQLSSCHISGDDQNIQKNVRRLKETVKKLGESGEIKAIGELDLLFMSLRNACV

T2: human IL-22 (Homo sapiens, UniProt Q9GZX6)
T2 sequence (Q9GZX6 34-179): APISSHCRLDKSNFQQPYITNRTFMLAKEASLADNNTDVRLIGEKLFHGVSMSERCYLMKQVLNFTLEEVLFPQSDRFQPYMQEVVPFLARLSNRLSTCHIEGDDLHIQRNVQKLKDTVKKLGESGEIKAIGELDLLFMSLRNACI

T3: mouse IL-22 (mIL-22) (Mus musculus, UniProt Q9JJY9)
T3 sequence (Q9JJY9 34-179): T1 sequence (Q9JJY9 34-179)

T4: mIL22 (Mus musculus, UniProt Q9JJY9)
T4 sequence (Q9JJY9 34-179): T1 sequence (Q9JJY9 34-179)

B1: CPS09: mutant anti-IL-22 antibody binding human and mouse IL-22; light chain LC-04, heavy chain HC-25 (antibody, V domains shown)
VH: QVQLVQSGAEVKKPGASVKVSCKASGYIFRSYWIHWIRQPPGKGLEWIGRIYPGTGRTYYNEKFKGRVTISADKSISTAYLQWSSLKASDTAMYYCARSYDYSVAYWGQGTLVTVSS
VL: AIQLTQSPSSLSASVGDRVTITCSASSSVSYMHWYLQKPGQSPQLLIYETRKLASGVPSRFSGSGSGTDFTFTISSLEAEDAATYYCQQWSSNPYITFGQGTKVEIKR
B2: CPS14 (antibody, V domains shown)
VH: B1 VH with R30T, E62R
VL: B1 VL
B3: hum10: parent humanized monoclonal antibody against human IL-22; light chain variable region SEQ ID NO: 19, heavy chain variable region SEQ ID NO:20 (antibody, V domains shown)
VH: B1 VH with R30T, R57N, Y102S, V104C
VL: B1 VL with R51S
modifications: Synthetic sequence hum10-HC; Synthetic sequence hum10-LC
B4: LC-E049K: one of the mutant antibodies in the CPE library, used as a control (antibody, V domains shown)
VH: B1 VH with R30T, R57N, Y102S, V104C
VL: B1 VL with E49K, R51S
B5: CPS17: mutant anti-IL-22 antibody binding human and mouse IL-22; light chain LC-04, heavy chain HC-49 (antibody, V domains shown)
VH: B1 VH with R57N, E62R, D101M
VL: B1 VL
B6: CPS04: mutant anti-IL-22 antibody binding human and mouse IL-22; light chain LC-07, heavy chain HC-09 (antibody, V domains shown)
VH: B1 VH with R57N, E62R, Y102S
VL: B1 VL with E49K, R51S, A54L

Tests used:
mouse IL-22 = target: T1, mouse IL-22; assay: SPR capture assay, affinity to mouse IL-22; assay type: binding; conditions: mouse IL-22, SPR
Experimental: (§1) The affinity of the 10 antibodies of Table 1 was measured by Surface Plasma Resonance (SPR) using a capture assay in PBS buffer to generate binding curves at four different concentrations of each antibody (0.05, 0.1, 0.5, and 1.0 μg/ml). The Ka, Kd and KD values for the mutant antibodies were calculated from the curves for each of the antibodies.
(§2) The affinity of the 10 antibodies of Table 1 was measured by Surface Plasma Resonance (SPR) using a capture assay on a SPR-2 instrument (SierraSensiors, Hamburg, Germany). The antigens hIL-22 and mIL-22 were immobilized on chips. The running buffer for the assay contained 10 mM HEPES with a pH of 7.4, 500 mM NaCl, and 0.05% TWEEN® 20. […] The off-rate was measured for 6 minutes. Binding constants were calculated using the curve fitting software Analyzer2 (Sierra Sensors). Sensorgrams were analyzed with the instrument specific software and with BIAevaluation 4.1 software. The binding data were analyzed using the Langmuir 1:1 model (human IL-22) or a model for a heterogeneous ligand ([…]).
(§3) The antibodies were tested at four different concentrations of each antibody: 0.33 nM, 0.67 nM, 3.3 nM, 6.7 nM for hIL-22; 1, 2, […] for mIL-22. Antibody CPE-LC-E049K was used as a control.

[1] = Aggregate formation at 10 mg/mL in PBS; assay type: physicochemical
human IL-22 = target: T2, human IL-22; assay: SPR capture assay, affinity to human IL-22; assay type: binding; conditions: human IL-22, SPR
Experimental: as §1, §2, §3

mouse IL-22 (mIL-22) = target: T3, mouse IL-22 (mIL-22); assay: Inhibition of mIL-22 induced Stat3 phosphorylation in HepG2 cells; assay type: cell-based; conditions: mAb 6.7 nM
Experimental: One of the immediate functions of IL-22 is inducing phosphorylation of Stat3, a protein in the signaling pathway of IL-22. The 10 antibodies of Table 1 were tested in a cell-based assay for blocking IL-22-dependent phosphorylation of Stat3 through human or mouse IL-22 in HepG2 cells. Antibody hum10 and mutant CPE-LC-E049K were used as controls. Four concentrations of each of the antibodies were used: 0.11 μg/mL, 0.33 μg/mL, 1 μg/mL, and 3 μg/mL.
30,000 human HepG2 cells were seeded in 96 well plates and serum starved overnight. Three-fold dilutions of anti-IL-22 antibodies and control hum10 antibody at concentrations of 0.11 μg/mL, 0.33 μg/mL, 1 μg/mL, and 3 μg/mL were incubated with 200 ng/ml of hIL-22 or mIL-22 at 37° C. for one hour then added to the serum starved human HepG2 cells. The HepG2 cells were incubated with the antibody-IL-22 mixture at 37° C. for 20 minutes. After incubation, HepG2 cells were washed with PBS and lysed. Half of the cell lysate was used to determine the level of phosphorylated Stat3 using Cell Signaling kit #7300 following the vendor's protocol and the other half of the cell lysate was used to determine the level of total Stat3 by Western blot analysis using a Santa Cruz rabbit polyclonal antibody (Sc-7179) against human Stat3.

[2] = Pharmacokinetics in NOD SCID mice, plasma concentration by solid phase ELISA; assay type: in vivo, mouse; conditions: after a 10 mg/kg IV injection
Experimental: The pharmacokinetics of the mutant antibodies of Table 1 were analyzed in mice. The antibodies were injected into mice by IV injection at two doses 0.3 mg/kg and 10 mg/kg. The concentrations of the injected antibodies in the blood plasma were measured by solid phase ELISA.
Two anti-IL-22 antibodies CPS02 and CPS09 were tested in NOD SCID mice. The antibodies were injected via IV at two dosages: 0.3 mg/kg and 10 mg/kg. Three mice were used for each dose group. Blood samples were retrieved from the mice at 10 min, 1 h, 3 h 7 h, 24 h, 48 h, 96 h, 168 h, 240 h and 336 h after the IV injection. The concentrations of the injected antibodies in the blood samples were measured by solid phase ELISA.

Thermostability = assay type: physicochemical
[3] = system: imiquimod (IMQ) induced psoriasis; assay type: in vivo; conditions: for reduction in body weight of the treated mice: days 0-7, in comparison to dexamethasone / PBS (FIG. 13)
Excerpt: Two anti-IL-22 antibodies of the present invention, CPS02 and CPS09, were used for the treatment of imiquimod (IMQ) induced psoriasis in mice (FIG. 12). The mice were male BALB/c mice, which were an albino, laboratory-bred strain of the house mouse. A total of 70 mice, at a body weight of 18-20 g, were acclimated for 7 days before induction of psoriasis.
The 70 mice were randomized into 7 groups (10 mice in each group). One group (group 1) was used as a negative control to which no imiquimod was administered to the mice, which was instead replaced with Vaseline. […] The other 6 groups (groups 2-7) were dosed topically with imiquimod at a dosage of 82.5 mg/mouse (5% cream) once daily (qd) for 8 consecutive days from day 0 to day 7 (20 mg for the left ear, 62.5 mg for the shaved back) to induce psoriasis. The back skin was shaved to expose an area of 2×3 cm^2. For the Vaseline control group, the Vaseline was also applied at 82.5 mg/mouse once daily (qd) for 8 consecutive days (20 mg for left ear, 62.5 mg for the shaved back) from day 0 to day 7.
Group 2 was a group of psoriasis-induced mice that were untreated to serve as a control group. The treatment period completely overlapped with the imiquimod application period (day 0 to day 7). For group 2, the mice received both imiquimod and […] on each day of the 8-day period (day 0 to day 7). For the groups that received intravenous (I.V.) injection, the imiquimod was applied within one hour after the I.V. injection on days 0 and 3.
Group 3 was treated with the steroid dexamethasone, which is a current therapeutic treatment used for psoriasis. The dexamethasone was topically applied twice a day (BID) for 8 days. Group 4 was treated with phosphate-buffered saline (PBS), which served as a negative control. Group 5 was treated with an isotype control antibody that also served as a negative control. Groups 6-7 were treated with the anti-IL22 antibodies CPS02 (A) and CPS09 (B), respectively. The treatments for Groups 4-7 were administered by a single intravenous (I.V.) injection on each of days 0 and 3. 3 mice in group 6 died on day 0 and 2 died on day 1. On day 3, the I.V. injection dosage for this group was decreased to 10 mg/kg.
During the 8 day treatment period, the ear thickness was measured on days 0, 3, 5 and 7. The body weight and various skin scores were recorded daily. Pictures of the psoriasis sites were taken on days 0, 3, 5 and 7. On days 1 and 4, about 60 μl blood was collected via retro-orbital bleeding over 24 hours and placed in BD Microtainer® tubes coated with dipotassium ethylenediaminetetraacetic acid (K2EDTA). Plasma was then collected (to get at least 20 μl plasma) and stored at −80° C.
Skin scores for erythema, scales and thickness were measured daily according to an established grading system. The erythema, scales and thickness were scored independently on a scale of from 0 to 4: 0 means none, 1 means slight, 2 means moderate, 3 means marked, and 4 means very marked. The cumulative (total) skin score was also calculated.
The effects of the treatments were analyzed statistically using two-way analysis of variance (ANOVA, Bonferroni post-tests) or one-way ANOVA analysis. For comparisons between the treatment groups and the control group, the p value is denoted in FIGS. 13-18 as (*) if less than 0.05, (**) if less than 0.01, or (***) if less than 0.001.

mIL22 = target: T4, mIL22; assay: Affinity ELISA mIL22; assay type: binding
Excerpt: The CPE™ library was screened for antibodies that were able to bind to both human IL-22 and mouse IL-22 with high affinity. Specifically, the CPE™ variants were screened by affinity ELISA for mouse IL-22 (mIL-22) binding affinity. The hum10 was included in every affinity ELISA plate as a control. The CPE™ variants with increased binding affinity to mIL-22 compared to hum10 were scored as primary CPE™ hits. The primary CPE™ hits were re-arrayed, re-transfected, and screened again by affinity ELISA and also by titration ELISA using both mIL-22 and human IL-22 (hIL-22) for antibodies that bind to both mIL-22 and hIL-22. These 10 mutant antibodies were selected based on ELISA data and sequence diversity, ability to scaled up and purified.

| Molecule | ka (mouse IL-22) | kd (mouse IL-22) | ka (human IL-22) | kd (human IL-22) | STAT3 Phosphorylation; mIL22 % inhibition (mouse IL-22 (mIL-22)) | further results |
| --- | --- | --- | --- | --- | --- | --- |
| B1 | 194000 M·s | 0.000768 s⁻¹ | 860000 M·s | 2.18e-05 s⁻¹ | 63.12% | Aggregate formation at 10 mg/mL in PBS [1]: no; half-life in mice [2]: about 16 hours; Thermostability (% remaining activity 60 min); of duplicate samples (Thermostability): 102%; effect in treating psoriasis in the mouse model (summary) ([3]; IMQ psoriasis mice): especially effective in treating psoriasis; reduction in body weight of the treated mice ([3]; IMQ psoriasis mice): less reduction in body weight; reduction in body weight of the treated mice ([3]; IMQ psoriasis mice, listed as CSP09): reduction in body weight similar to the PBS buffer negative control; side effect (summary) ([3]; in comparison with the known treatment (dexamethasone)): only a minimal side effect; ear skin thickness ([3]; vs negative controls (isotype matched antibody, PBS, vehicle) (FIG. 14)): less; skin erythema score ([3]; vs negative controls (isotype matched antibody, PBS, vehicle) (FIG. 15)): lower; skin scale score ([3]; vs negative controls (isotype matched antibody, PBS, vehicle) (FIG. 16)): lower; skin thickness ([3]; vs negative controls (isotype matched antibody, PBS, vehicle) (FIG. 17)): lower |
| B2 | 256000 M·s | 0.00123 s⁻¹ | 1.13e+06 M·s | 3.55e-05 s⁻¹ | – | – |
| B3 | – | – | – | – | no inhibition | Affinity ELISA mIL22 50% max signal mAb (mIL22; first mIL22 line of Table 3): no binding; Affinity ELISA mIL22 50% max signal mAb (mIL22; second mIL22 line of Table 3): no binding |
| B4 | 34100 M·s | 0.00137 s⁻¹ | 381000 M·s | 5.93e-05 s⁻¹ | – | – |
| B5 | 252000 M·s | 0.00158 s⁻¹ | 1.33e+06 M·s | 6.94e-05 s⁻¹ | – | – |
| B6 | 279000 M·s | 0.00118 s⁻¹ | 1.28e+06 M·s | 3.74e-05 s⁻¹ | – | – |
